Laboratory results published in patent US20250179172A1.

Columns and labels:
[1] = molecular target: human CD5, full length, on cells (Jurkat, endogenous; CHO-K1-human CD5, transfected) (human) (UniProt P06127); experiment: FACS on Jurkat cells
[2] = molecular target: human CD5, full length, on cells (Jurkat, endogenous; CHO-K1-human CD5, transfected) (human) (UniProt P06127); experiment: FACS on CHO-K1-hCD5-2B2 cells
[3] = molecular target: human CD5, full length, on cells (Jurkat, endogenous; CHO-K1-human CD5, transfected) (human) (UniProt P06127); experiment: FACS on CHO-K1-hCD5-2C6 cells
[4] = molecular target: human CD5, full length, on cells (Jurkat, endogenous; CHO-K1-human CD5, transfected) (human) (UniProt P06127); experiment: FACS on CHO-K1-hCD5-2E2 cells
[5] = molecular target: human CD5, full length, on cells (Jurkat, endogenous; CHO-K1-human CD5, transfected) (human) (UniProt P06127); experiment: FACS on CHO-K1-hCD5-2F8 cells
[6] = molecular target: human CD5, full length, on cells (Jurkat, endogenous; CHO-K1-human CD5, transfected) (human) (UniProt P06127); experiment: FACS on CHO-K1-human CD5 cells
[7] = molecular target: human CD5 (Arg25-Pro372)-His protein (Acro, Cat. No. CD5-H52H5) (human) (UniProt P06127); experiment: ELISA on hCD5-His, antibody 1 nM
[8] = molecular target: monkey CD5, full length, on HEK293T cells (monkey); experiment: FACS on HEK293T-monkey CD5 cells
[9] = molecular target: human CD5 (Arg25-Pro372)-His protein (Acro, Cat. No. CD5-H52H5) (human) (UniProt P06127); experiment: ELISA on hCD5-His, antibody 10 nM
[10] = molecular target: human CD5 (Arg25-Pro372)-His protein (Acro, Cat. No. CD5-H52H5) (human) (UniProt P06127); experiment: ELISA on hCD5-His, antibody 0.1 nM
[11] = molecular target: human CD5 (Arg25-Pro372)-His protein (Acro, Cat. No. CD5-H52H5) (human) (UniProt P06127); experiment: ELISA on hCD5-His, antibody 100 nM
[12] = molecular target: human CD5 (Arg25-Pro372)-His protein (Acro, Cat. No. CD5-H52H5) (human) (UniProt P06127); experiment: ELISA on hCD5-His, antibody 0.01 nM
[13] = molecular target: human CD5 (Arg25-Pro372)-His protein (Acro, Cat. No. CD5-H52H5) (human) (UniProt P06127); experiment: ELISA on hCD5-His, antibody 0.001 nM
[14] = molecular target: human CD5 (Arg25-Pro372)-His protein (Acro, Cat. No. CD5-H52H5) (human) (UniProt P06127); experiment: ELISA on hCD5-His, antibody 0.0001 nM
[15] = molecular target: murine CD5-His (Sino Biologicals, Cat. No. 50403-M08H) (murine) (UniProt P13379); experiment: ELISA on murine CD5-His, antibody 0.01 nM
[16] = molecular target: murine CD5-His (Sino Biologicals, Cat. No. 50403-M08H) (murine) (UniProt P13379); experiment: ELISA on murine CD5-His, antibody 0.10 nM
[17] = molecular target: murine CD5-His (Sino Biologicals, Cat. No. 50403-M08H) (murine) (UniProt P13379); experiment: ELISA on murine CD5-His, antibody 1.00 nM
[18] = molecular target: murine CD5-His (Sino Biologicals, Cat. No. 50403-M08H) (murine) (UniProt P13379); experiment: ELISA on murine CD5-His, antibody 0.001 nM
[19] = molecular target: murine CD5-His (Sino Biologicals, Cat. No. 50403-M08H) (murine) (UniProt P13379); experiment: ELISA on murine CD5-His, antibody 10.00 nM
[20] = molecular target: murine CD5-His (Sino Biologicals, Cat. No. 50403-M08H) (murine) (UniProt P13379); experiment: ELISA on murine CD5-His, antibody 100.00 nM
[21] = molecular target: murine CD5-His (Sino Biologicals, Cat. No. 50403-M08H) (murine) (UniProt P13379); experiment: ELISA on murine CD5-His, antibody '0.000' nM as printed

UniProt P13379, sequence (P13379 24-371 limits assumed, stated change not applied): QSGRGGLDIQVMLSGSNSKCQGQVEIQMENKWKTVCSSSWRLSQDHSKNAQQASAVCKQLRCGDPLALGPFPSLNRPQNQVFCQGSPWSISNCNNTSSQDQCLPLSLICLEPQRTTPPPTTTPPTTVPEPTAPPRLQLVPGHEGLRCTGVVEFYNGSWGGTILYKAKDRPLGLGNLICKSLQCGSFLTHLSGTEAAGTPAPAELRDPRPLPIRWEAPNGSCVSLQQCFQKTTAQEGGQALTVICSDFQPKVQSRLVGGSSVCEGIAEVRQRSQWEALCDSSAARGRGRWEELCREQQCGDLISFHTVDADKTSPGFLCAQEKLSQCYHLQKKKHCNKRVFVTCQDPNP
monkey CD5, full length, on HEK293T cells (monkey), sequence (chain, as listed by the source limits assumed): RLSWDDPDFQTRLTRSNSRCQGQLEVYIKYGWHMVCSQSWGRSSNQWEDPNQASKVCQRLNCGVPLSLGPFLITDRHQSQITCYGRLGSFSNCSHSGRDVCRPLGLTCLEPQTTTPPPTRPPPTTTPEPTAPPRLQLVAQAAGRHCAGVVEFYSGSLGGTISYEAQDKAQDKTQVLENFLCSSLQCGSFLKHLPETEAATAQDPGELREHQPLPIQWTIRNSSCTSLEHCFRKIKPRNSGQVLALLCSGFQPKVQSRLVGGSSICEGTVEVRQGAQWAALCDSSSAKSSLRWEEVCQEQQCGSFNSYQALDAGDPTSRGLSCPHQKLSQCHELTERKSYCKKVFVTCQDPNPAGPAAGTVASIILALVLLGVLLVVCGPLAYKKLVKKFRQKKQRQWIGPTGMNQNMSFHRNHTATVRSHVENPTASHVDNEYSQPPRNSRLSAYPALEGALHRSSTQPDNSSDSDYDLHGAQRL

Max MFI [1]: 62 MFI
Mean fluorescence intensity of cells [1]: 97 MFI
Mean fluorescence intensity of cells [2]: 65.9 MFI
Mean fluorescence intensity of cells [3]: 65.9 MFI
Mean fluorescence intensity of cells [4]: 65.9 MFI
Mean fluorescence intensity of cells [5]: 65.9 MFI
Max MFI [6]: 93 MFI
OD450 [7]: 0.05 OD450
Max MFI [8]: 79 MFI
OD450 [9]: 0.05 OD450
OD450 [10]: 0.05 OD450
OD450 [11]: 0.06 OD450
OD450 [12]: 0.05 OD450
OD450 [13]: 0.05 OD450
OD450 [14]: 0.05 OD450
OD450 [15]: 0.11 OD450
OD450 [16]: 0.11 OD450
OD450 [17]: 0.11 OD450
OD450 [18]: 0.11 OD450
OD450 [19]: 0.12 OD450
OD450 [20]: 0.12 OD450
OD450 [21]: 0.11 OD450
Substance: Anti-HEL-hIgG1 (antibody against hen egg lysozyme, Biointron Cat. No. B117901)
